Results: PMC7251119 (Nature Communications, 2020)

B4: (His)10-MBP-DotL(656-783)–IcmSW–LvgA (complex)
chain 1: GQNEPEPVEDIVEEEVEGALTIFSKLRIDPNAPPILVADKEVFSEPLLPINETRNQMITIERLAGAKDKYAGTVANELIKDFQIATSYPPEERDVIDVQELTGIIRDLSAKISAEREKANKKAAEELT
chain 2: MERDISKCMAKIAASMNAKFYLNDRFVSFDEVFSETGLLPAIAKRADQLCSLCLGYGLGATYDESEGALLGIRVVFDEVTPNVLRLLCMTDVMNELIQGGPSRDYTPLDELMYD
chain 3: MPDLSHEASAKYWFEYLDPMIYRVITFMESVENWTLDGNPELEEAMKQLGQELDDIEKIDLGLLAEEDKFIRIVGNIKSGRGLRLLQAIDTVHPGSASRVLIHAEETSLSSSDPAGFFLKRNIVFERLRLLSRVFCQYRLKLVLRALEGDE
chain 4: MADGDIEIKAGFVDTDLDDRKLTMIDDLNNPLAIVERVYLIWWHWADFHLHVISPHIDTITPAIVIEPELIPGSNDHEFVYSIHDSGSKLSTSKSQDMFSAGMSMCKLFYTIEKMVYILVERLKSGGVSMEAEVQIAFAGHEIAQRKAFESIINLPYNVVVTNFDPGIWGEKYLQNVKRLADKGYGYPPESPRKIYMHPVSSGTTARK
notes: copies: + + +

Tests used:
[1] = target: the molecule itself; assay: SEC; […]; 20 mM Tris-HCl (pH 7.5) plus 100 mM NaCl or 300 mM NaCl; […]
[2] = target: B4; assay: native gel or EMSA; conditions: both partners purified
VpdB(11-590) = VpdB(11-590) (Legionella pneumophila, UniProt Q5ZW60 11-590); assay: BLI; conditions: both partners purified
SetA = target: T1, SetA (Legionella pneumophila, UniProt Q5ZU30 1-644); assay: native gel or EMSA; conditions: both partners purified
T1 sequence: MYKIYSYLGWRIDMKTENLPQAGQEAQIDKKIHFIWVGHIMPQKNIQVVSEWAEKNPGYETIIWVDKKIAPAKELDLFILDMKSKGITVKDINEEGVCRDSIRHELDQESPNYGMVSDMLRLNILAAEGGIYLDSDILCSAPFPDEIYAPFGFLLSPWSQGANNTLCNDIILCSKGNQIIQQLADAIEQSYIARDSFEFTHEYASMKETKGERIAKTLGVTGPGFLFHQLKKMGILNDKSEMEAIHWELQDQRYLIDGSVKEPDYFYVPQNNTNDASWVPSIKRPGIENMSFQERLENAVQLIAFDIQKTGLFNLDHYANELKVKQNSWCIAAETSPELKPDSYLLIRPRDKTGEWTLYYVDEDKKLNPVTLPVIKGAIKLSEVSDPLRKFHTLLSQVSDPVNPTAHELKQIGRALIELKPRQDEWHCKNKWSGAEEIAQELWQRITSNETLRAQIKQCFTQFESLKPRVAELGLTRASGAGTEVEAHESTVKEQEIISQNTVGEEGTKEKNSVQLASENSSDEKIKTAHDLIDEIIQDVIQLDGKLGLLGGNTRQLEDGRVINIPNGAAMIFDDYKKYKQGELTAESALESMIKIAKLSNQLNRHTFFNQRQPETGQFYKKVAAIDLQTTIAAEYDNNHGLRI

B1: SetA(480-644) (domain or fragment)
chain: GAGTEVEAHESTVKEQEIISQNTVGEEGTKEKNSVQLASENSSDEKIKTAHDLIDEIIQDVIQLDGKLGLLGGNTRQLEDGRVINIPNGAAMIFDDYKKYKQGELTAESALESMIKIAKLSNQLNRHTFFNQRQPETGQFYKKVAAIDLQTTIAAEYDNNHGLRI
For B1, the “stoichiometry N” value [1] was 2.

B2: SetA(480-644) (domain or fragment)
chain: GAGTEVEAHESTVKEQEIISQNTVGEEGTKEKNSVQLASENSSDEKIKTAHDLIDEIIQDVIQLDGKLGLLGGNTRQLEDGRVINIPNGAAMIFDDYKKYKQGELTAESALESMIKIAKLSNQLNRHTFFNQRQPETGQFYKKVAAIDLQTTIAAEYDNNHGLRI
B2: binds [2].

B3: (His)10-YFP-SidH(2183-2200) (peptide)
chain: ENETLVSSFKQRLQNIKG
B3: binds [2].

With B4 the Kd (VpdB(11-590)) was roughly 400 nM and the binding result (SetA) was “binds”.
